Measured values reported in patent publication US20140087995A1 (published 2014).
Numbering of substitutions follows the chain as printed. Numbered stars: 1 amine (or outer) side, 2 acyl side, 3 side chain; on linkers, the order of the positions; unused ones are H or OH. Bridge positions count the residues as written; N and C are the ends. Side chains are listed from the residue outwards. Ends that are not written are not given here. * marks the point of attachment. C20 diacid = O=C(O)CCCCCCCCCCCCCCCCCCC(=O)*; γGlu = O=C(O)[C@H](CCC(=O)[*:2])N[*:1]; AEEA = NCCOCCOCC(=O)O

T1: human calcitonin receptor (human, UniProt P30988 25-474)
T1 construct: whole, on cells; also called hCTR; hCT
T1 sequence (looked up): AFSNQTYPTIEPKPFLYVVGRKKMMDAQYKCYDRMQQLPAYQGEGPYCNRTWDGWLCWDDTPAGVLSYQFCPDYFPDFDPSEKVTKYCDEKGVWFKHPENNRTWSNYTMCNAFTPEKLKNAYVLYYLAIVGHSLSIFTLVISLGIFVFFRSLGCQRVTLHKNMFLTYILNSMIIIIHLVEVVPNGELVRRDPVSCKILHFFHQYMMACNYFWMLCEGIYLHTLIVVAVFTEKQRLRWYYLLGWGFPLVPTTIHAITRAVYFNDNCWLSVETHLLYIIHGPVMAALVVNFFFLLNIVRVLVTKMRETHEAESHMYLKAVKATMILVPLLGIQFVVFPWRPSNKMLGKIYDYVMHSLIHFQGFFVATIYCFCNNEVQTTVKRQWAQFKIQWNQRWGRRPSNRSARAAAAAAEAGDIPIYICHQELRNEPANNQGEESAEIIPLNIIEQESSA

B1: N^α1 N^α1-[(4S)-4-carboxy-4-[[(4S)-4-carboxy-4-(19-carboxynonadecanoylamino)butanoyl]amino]butanoyl]-[Glu14,Arg17,Pro21,Pro27]-h-amylin (peptide)
peptide: {C20 diacid-γGlu-γGlu}-KCNTATCATQRLAEFLRHSSPNFGAIPSSTNVGSNTY-NH2
modifications: disulfide 2-7
SMILES: CC[C@H](C)[C@H](NC(=O)[C@H](C)NC(=O)CNC(=O)[C@H](Cc1ccccc1)NC(=O)[C@H](CC(N)=O)NC(=O)[C@@H]1CCCN1C(=O)[C@H](CO)NC(=O)[C@H](CO)NC(=O)[C@H](Cc1c[nH]cn1)NC(=O)[C@H](CCCNC(=N)N)NC(=O)[C@H](CC(C)C)NC(=O)[C@H](Cc1ccccc1)NC(=O)[C@H](CCC(=O)O)NC(=O)[C@H](C)NC(=O)[C@H](CC(C)C)NC(=O)[C@H](CCCNC(=N)N)NC(=O)[C@H](CCC(N)=O)NC(=O)[C@@H](NC(=O)[C@H](C)NC(=O)[C@@H]1CSSC[C@H](NC(=O)[C@H](CCCCN)NC(=O)CC[C@H](NC(=O)CC[C@H](NC(=O)CCCCCCCCCCCCCCCCCCC(=O)O)C(=O)O)C(=O)O)C(=O)N[C@@H](CC(N)=O)C(=O)N[C@@H]([C@@H](C)O)C(=O)N[C@@H](C)C(=O)N[C@@H]([C@@H](C)O)C(=O)N1)[C@@H](C)O)C(=O)N1CCC[C@H]1C(=O)N[C@@H](CO)C(=O)N[C@@H](CO)C(=O)N[C@H](C(=O)N[C@@H](CC(N)=O)C(=O)N[C@H](C(=O)NCC(=O)N[C@@H](CO)C(=O)N[C@@H](CC(N)=O)C(=O)N[C@H](C(=O)N[C@@H](Cc1ccc(O)cc1)C(N)=O)[C@@H](C)O)C(C)C)[C@@H](C)O
notes: also called compound 15
B2: N^α1-[2-[2-[2-[[2-[2-[2-[[(4S)-4-carboxy-4-(19-carboxynonadecanoylamino)butanoyl]amino]ethoxy]ethoxy]acetyl]amino]ethoxy]ethoxy]acetyl]-[Glu14,Arg17,Pro21,Pro27 … (peptide)
peptide: KCNTATCATQRLAEFLRHSSPNFGAIPSSTNVGSNTY
modifications: C20 diacid-gGlu-2xOEG on alpha amino group of N-terminal Lys 1; disulfide Cys2-Cys7; C-terminal amide (as human amylin)
notes: also called compound 19
B3: N^α1-[(4S)-4-carboxy-4-(19-carboxynonadecanoylamino)butanoyl]-[His14,Arg17,Pro21,Pro27,Glu35]-h-amylin (peptide)
peptide: {C20 diacid-γGlu}-KCNTATCATQRLAHFLRHSSPNFGAIPSSTNVGSETY-NH2
modifications: disulfide 2-7
SMILES: CC[C@H](C)[C@H](NC(=O)[C@H](C)NC(=O)CNC(=O)[C@H](Cc1ccccc1)NC(=O)[C@H](CC(N)=O)NC(=O)[C@@H]1CCCN1C(=O)[C@H](CO)NC(=O)[C@H](CO)NC(=O)[C@H](Cc1c[nH]cn1)NC(=O)[C@H](CCCNC(=N)N)NC(=O)[C@H](CC(C)C)NC(=O)[C@H](Cc1ccccc1)NC(=O)[C@H](Cc1c[nH]cn1)NC(=O)[C@H](C)NC(=O)[C@H](CC(C)C)NC(=O)[C@H](CCCNC(=N)N)NC(=O)[C@H](CCC(N)=O)NC(=O)[C@@H](NC(=O)[C@H](C)NC(=O)[C@@H]1CSSC[C@H](NC(=O)[C@H](CCCCN)NC(=O)CC[C@H](NC(=O)CCCCCCCCCCCCCCCCCCC(=O)O)C(=O)O)C(=O)N[C@@H](CC(N)=O)C(=O)N[C@@H]([C@@H](C)O)C(=O)N[C@@H](C)C(=O)N[C@@H]([C@@H](C)O)C(=O)N1)[C@@H](C)O)C(=O)N1CCC[C@H]1C(=O)N[C@@H](CO)C(=O)N[C@@H](CO)C(=O)N[C@H](C(=O)N[C@@H](CC(N)=O)C(=O)N[C@H](C(=O)NCC(=O)N[C@@H](CO)C(=O)N[C@@H](CCC(=O)O)C(=O)N[C@H](C(=O)N[C@@H](Cc1ccc(O)cc1)C(N)=O)[C@@H](C)O)C(C)C)[C@@H](C)O
notes: also called compound 30
B4: N^ε1-[2-[2-[2-[[2-[2-[2-[[(4S)-4-carboxy-4-(19-carboxynonadecanoylamino)butanoyl]amino]ethoxy]ethoxy]acetyl]amino]ethoxy]ethoxy]acetyl]-[Arg17,Pro21,Pro27,Glu35 … (peptide)
peptide: K([AEEA-AEEA-γGlu-C20 diacid])CNTATCATQRLANFLRHSSPNFGAIPSSTNVGSETY-NH2
modifications: disulfide 2-7; N-terminus assumed
SMILES: CC[C@H](C)[C@H](NC(=O)[C@H](C)NC(=O)CNC(=O)[C@H](Cc1ccccc1)NC(=O)[C@H](CC(N)=O)NC(=O)[C@@H]1CCCN1C(=O)[C@H](CO)NC(=O)[C@H](CO)NC(=O)[C@H](Cc1c[nH]cn1)NC(=O)[C@H](CCCNC(=N)N)NC(=O)[C@H](CC(C)C)NC(=O)[C@H](Cc1ccccc1)NC(=O)[C@H](CC(N)=O)NC(=O)[C@H](C)NC(=O)[C@H](CC(C)C)NC(=O)[C@H](CCCNC(=N)N)NC(=O)[C@H](CCC(N)=O)NC(=O)[C@@H](NC(=O)[C@H](C)NC(=O)[C@@H]1CSSC[C@H](NC(=O)[C@@H](N)CCCCNC(=O)COCCOCCNC(=O)COCCOCCNC(=O)CC[C@H](NC(=O)CCCCCCCCCCCCCCCCCCC(=O)O)C(=O)O)C(=O)N[C@@H](CC(N)=O)C(=O)N[C@@H]([C@@H](C)O)C(=O)N[C@@H](C)C(=O)N[C@@H]([C@@H](C)O)C(=O)N1)[C@@H](C)O)C(=O)N1CCC[C@H]1C(=O)N[C@@H](CO)C(=O)N[C@@H](CO)C(=O)N[C@H](C(=O)N[C@@H](CC(N)=O)C(=O)N[C@H](C(=O)NCC(=O)N[C@@H](CO)C(=O)N[C@@H](CCC(=O)O)C(=O)N[C@H](C(=O)N[C@@H](Cc1ccc(O)cc1)C(N)=O)[C@@H](C)O)C(C)C)[C@@H](C)O
notes: also called compound 25
B5: N^α1-[(4S)-4-carboxy-4-(19-carboxynonadecanoylamino)butanoyl]-[Arg17,Pro21,Pro27,Lys35]-h-amylin (peptide)
peptide: B2 peptide with E14N, N35K
modifications: C20 diacid-gGlu on alpha amino group of N-terminal Lys 1; disulfide Cys2-Cys7; C-terminal amide (as human amylin)
notes: also called compound 34
B6: N^α1-[(4S)-4-carboxy-4-(19-carboxynonadecanoylamino)butanoyl]-[Arg17,Pro21,Pro27,His34]-h-amylin (peptide)
peptide: B2 peptide with E14N, S34H
modifications: C20 diacid-gGlu on alpha amino group of N-terminal Lys 1; disulfide Cys2-Cys7; C-terminal amide (as human amylin)
notes: also called compound 40
B7: N^α1-[(4S)-4-carboxy-4-(19-carboxynonadecanoylamino)butanoyl]-[Arg17,Pro21,Pro27,Glu35]-h-amylin (peptide)
peptide: B2 peptide with E14N, N35E
modifications: C20 diacid-gGlu on alpha amino group of N-terminal Lys 1; disulfide Cys2-Cys7; C-terminal amide (as human amylin)
notes: also called compound 23
B8: N^α1-[(4S)-4-carboxy-4-(19-carboxynonadecanoylamino)butanoyl]-[Arg17,Pro21,Pro27,Pro31,Glu35]-h-amylin (peptide)
peptide: {C20 diacid-γGlu}-KCNTATCATQRLANFLRHSSPNFGAIPSSTPVGSETY-NH2
modifications: disulfide 2-7
SMILES: CC[C@H](C)[C@H](NC(=O)[C@H](C)NC(=O)CNC(=O)[C@H](Cc1ccccc1)NC(=O)[C@H](CC(N)=O)NC(=O)[C@@H]1CCCN1C(=O)[C@H](CO)NC(=O)[C@H](CO)NC(=O)[C@H](Cc1c[nH]cn1)NC(=O)[C@H](CCCNC(=N)N)NC(=O)[C@H](CC(C)C)NC(=O)[C@H](Cc1ccccc1)NC(=O)[C@H](CC(N)=O)NC(=O)[C@H](C)NC(=O)[C@H](CC(C)C)NC(=O)[C@H](CCCNC(=N)N)NC(=O)[C@H](CCC(N)=O)NC(=O)[C@@H](NC(=O)[C@H](C)NC(=O)[C@@H]1CSSC[C@H](NC(=O)[C@H](CCCCN)NC(=O)CC[C@H](NC(=O)CCCCCCCCCCCCCCCCCCC(=O)O)C(=O)O)C(=O)N[C@@H](CC(N)=O)C(=O)N[C@@H]([C@@H](C)O)C(=O)N[C@@H](C)C(=O)N[C@@H]([C@@H](C)O)C(=O)N1)[C@@H](C)O)C(=O)N1CCC[C@H]1C(=O)N[C@@H](CO)C(=O)N[C@@H](CO)C(=O)N[C@H](C(=O)N1CCC[C@H]1C(=O)N[C@H](C(=O)NCC(=O)N[C@@H](CO)C(=O)N[C@@H](CCC(=O)O)C(=O)N[C@H](C(=O)N[C@@H](Cc1ccc(O)cc1)C(N)=O)[C@@H](C)O)C(C)C)[C@@H](C)O
notes: also called compound 28
B9: N^α1-[(4S)-4-carboxy-4-(19-carboxynonadecanoylamino)butanoyl]-[Arg17,Pro21,Pro27,Arg34]-h-amylin (peptide)
peptide: B2 peptide with E14N, S34R
modifications: C20 diacid-gGlu on alpha amino group of N-terminal Lys 1; disulfide Cys2-Cys7; C-terminal amide (as human amylin)
notes: also called compound 39

molecular target: T1, human calcitonin receptor; test: SPA competition with 125I-calcitonin, membranes of BHK hCTR cells (Assay VII)
Description: Membranes were prepared in the following way; the cells were rinsed with PBS and incubated with Versene for approximately 5 min before harvesting. The cells were flushed with PBS and the cell-suspension was centrifuged for 5 min at 1000 rpm. Cells were homogenized (Ultrathurrax) in a buffer containing 20 mM Na-HEPES and 10 mM EDTA (pH 7.4) and centrifuged at 20.000 rpm for 15 min. The resulting pellet was resuspended, homogenized and centrifuged (20.000 rpm, 15 min) in a buffer containing 20 mM Na-HEPES and 0.1 mM EDTA (pH 7.4, buffer 2). The resulting pellet was resuspended in buffer 2 and protein concentration was measured (BCA protein Assay, Pierce). The homogenate was kept cold during the whole procedure. The membranes were kept at −80° C. until use. Assay was performed in a 384 well Optiplate (PerkinElmer) in a total volume of 40 ul. Membranes were mixed with SPA beads. Final concentration of membranes 35 ng/μL final and Final concentration of SPA beads was 0.05 mg/well. Test-compounds were dissolved in DMSO and further diluted in assay buffer (50 mM Hepes, pH 7.4, 1 mM CaCl2, 5 mM MgCl₂, 0.1% OA and 0.02% Tween20). […] The final mixture was incubated for 120 min with shaking at 400 rpm at 25° C. prior to centrifugation (1500 rpm, 10 min). Samples were analyzed on TopCounter™ (Packard). The […] was calculated using (one site binding competition analysis) GraphPad Prism5 as a measure of receptor affinity.

IC50 [nM] | Binder
15.5 | B1
20.4 | B2
21.6 | B3
43.4 | B4
73.4 | B5
17.1 | B6
21.8 | B7
12.5 | B8
19.3 | B9
